The record followed here is paper PMC2173431 (The Journal of Cell Biology, 2003).

Like-named read-outs stand apart in the source and are kept apart here.

The target of test [1] is T1, GST-AIP (human, UniProt O00170 1-330).
T1 sequence (looked up): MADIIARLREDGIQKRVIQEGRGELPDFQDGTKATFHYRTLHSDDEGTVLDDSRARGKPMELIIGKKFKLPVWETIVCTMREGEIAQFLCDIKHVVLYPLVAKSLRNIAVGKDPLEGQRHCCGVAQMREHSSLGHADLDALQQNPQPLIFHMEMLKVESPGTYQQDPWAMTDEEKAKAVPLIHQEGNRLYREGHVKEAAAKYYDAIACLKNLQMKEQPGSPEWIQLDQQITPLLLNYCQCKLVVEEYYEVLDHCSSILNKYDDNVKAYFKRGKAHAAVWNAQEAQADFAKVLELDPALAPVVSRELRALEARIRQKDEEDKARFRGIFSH
Nature of the test: pull-down.

Test [2] deals with T1, GST-AIP. In words: pull-down. This is another data set of the same source.

B1: MBP-cT20 (domain or fragment, human, UniProt Q15388 25-145, looked up)
chain: DRKRRSDPNFKNRLRERRKKQKLAKERAGLSKLPDLKDAEAVQKFFLEEIQLGEELLAQGEYEKGVDHLTNAIAVCGQPQQLLQVLQQTLPPPVFQMLLTKLPTISQRIVSAQSLAEDDVE
For B1, the binding result with GST-AIP [1] is recorded as “binds”.

B2: Tom20C[131–145] peptide (peptide)
peptide: QRIVSAQSLAEDDVE
B2: in the test with GST-AIP [2], the binding result is reported as “binds”.

B3: synthetic presequence peptide of human pOTC (peptide)
peptide: MLFNLRILLNNAAFRNGHNFMVRNFRCGQPLQ
B3: in the test with GST-AIP [2], the binding result is reported as “binds”.
